Results taken from patent US20230203202A1 (DRAGONFLY THERAPEUTICS, published 2023).
Positions count from the first letter of the chain named.

T1: human 5T4 on the cell surface (human, UniProt Q13641 32-420)
T1 sequence (looked up): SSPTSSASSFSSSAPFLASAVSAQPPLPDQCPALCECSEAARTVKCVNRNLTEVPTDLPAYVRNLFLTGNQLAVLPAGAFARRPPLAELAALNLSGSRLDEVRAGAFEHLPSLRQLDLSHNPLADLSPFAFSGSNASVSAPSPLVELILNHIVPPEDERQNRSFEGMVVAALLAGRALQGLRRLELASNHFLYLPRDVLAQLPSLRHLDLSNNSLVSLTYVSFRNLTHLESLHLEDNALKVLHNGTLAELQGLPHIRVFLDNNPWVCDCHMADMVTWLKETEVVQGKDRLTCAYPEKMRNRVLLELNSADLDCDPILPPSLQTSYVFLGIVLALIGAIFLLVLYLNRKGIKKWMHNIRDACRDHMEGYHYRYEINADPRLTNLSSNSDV

B1: 10F10 multispecific binding protein (F0) (bispecific antibody, V domains shown)
VH: EVQLQESGGGLVKPGGSRRLSCAASRFTFSDFGMHWVRQAPEKGLEWIAYISSGSSTIYYADTVKGRFTISRDNAKNTLFLQMTSLRSEDTAMYYCASSQSYYRGTLDYWGQGTSVTVSS
VL: DIVLTQSPASLAVTLGQRATISCRASQSVTTSNYNYMHWFHQKPGQPPKLLIKFASNLESGVPARFSGSGSGTDFTLNIHPVEEEDIATYYCQHSWEIPWTFGGGTKLEIK
B2: 8E06 multispecific binding protein (F0) (bispecific antibody, V domains shown)
VH: EVQLQESGAEMVRPGASVKLSCKASGYTFTSYWMHWVKQRPGQGLEWIGKIDSSDSKTQYNQKFKDKATLTVDKSSITVYMELNSLTSEDSAVYYCARGGYLWFAYWGQGTLVTVSA
VL: B1 VL with L4M, T14S, T30S, N33T, N35S, F40Y, H41Q, P47S, K53T, F54Y
notes: also called 08E06
B3: AB1890-TriNKET® (bispecific antibody, human IgG1, kappa)
chain: DIQLTQSPSSLSASVGDRVTITCRASQGVSTSTYTYMHWFQQKPGKAPKLLIKFASNLESGVPSRFSGSGSGTDFTLTISSLQPEDFATYYCQHSWEIPWTFGCGTKVEIKGGGGSGGGGSGGGGSGGGGSEVQLLESGGGLVQPGGSLRLSCAASGFTFSDYGMHWVRQAPGKCLEWVSYISSGSSTFYYADTVKGRFTISRDNSKNTLYLQMNSLRAEDTAVYYCGSSQSYYRGTMDYWGQGTTVTVSSGSDKTHTCPPCPAPELLGGPSVFLFPPKPKDTLMISRTPEVTCVVVDVSHEDPEVKFNWYVDGVEVHNAKTKPREEQYNSTYRVVSVLTVLHQDWLNGKEYKCKVSNKALPAPIEKTISKAKGQPREPRVYTLPPCRDELTKNQVSLTCLVKGFYPSDIAVEWESNGQPENNYKTTPPVLVSDGSFTLYSKLTVDKSRWQQGNVFSCSVMHEALHNHYTQKSLSLSPG
heavy: EVQLVESGGGLVKPGGSLRLSCAASGFTFSSYSMNWVRQAPGKGLEWVSSISSSSSYIYYADSVKGRFTISRDNAKNSLYLQMNSLRAEDTAVYYCARGAPIGAAAGWFDPWGQGTLVTVSSASTKGPSVFPLAPSSKSTSGGTAALGCLVKDYFPEPVTVSWNSGALTSGVHTFPAVLQSSGLYSLSSVVTVPSSSLGTQTYICNVNHKPSNTKVDKKVEPKSCDKTHTCPPCPAPELLGGPSVFLFPPKPKDTLMISRTPEVTCVVVDVSHEDPEVKFNWYVDGVEVHNAKTKPREEQYNSTYRVVSVLTVLHQDWLNGKEYKCKVSNKALPAPIEKTISKAKGQPREPQVCTLPPSRDELTENQVSLTCLVKGFYPSDIAVEWESNGQPENNYKTTPPVLDSDGSFFLYSWLTVDKSRWQQGNVFSCSVMHEALHNHYTQKSLSLSPG
light: DIQMTQSPSSVSASVGDRVTITCRASQGISSWLAWYQQKPGKAPKLLIYAASSLQSGVPSRFSGSGSGTDFTLTISSLQPEDFATYYCQQGVSFPRTFGGGTKVEIKRTVAAPSVFIFPPSDEQLKSGTASVVCLLNNFYPREAKVQWKVDNALQSGNSQESVTEQDSKDSTYSLSSTLTLSKADYEKHKVYACEVTHQGLSSPVTKSFNRGEC
notes: F3′ format; also called AB1890-VL-VH TriNKET®; 11F09-IGHV3-23*03 BM1-YB
B4: AB1893-TriNKET® (bispecific antibody, human IgG1, kappa)
chain: B3 chain with V179L, S180A, S206A
heavy: B3 heavy
light: B3 light
notes: F3′ format; also called AB1893-VL-VH TriNKET®; 11F09-IGHV3-23*03 BM2-YB
B5: AB1891-TriNKET® (bispecific antibody, human IgG1, kappa)
chain: B3 chain with L136V, Q144K, V168I, S206A, T209S
heavy: B3 heavy
light: B3 light
notes: F3′ format; also called AB1891-VL-VH TriNKET®; 11F09-IGHV3-11*01 BM1-YB
B6: AB1878-TriNKET® (bispecific antibody, human IgG1, kappa)
chain: DIQLTQSPSSLSASVGDRVTITCRASQSVTTSNYNYMHWFQQKPGKAPKLLIKFASNLESGVPSRFSGSGSGTDFTLTISSLQPEDFATYYCQHSWEIPWTFGCGTKVEIKGGGGSGGGGSGGGGSGGGGSEVQLVESGGGLVKPGGSLRLSCAASRFTFSDFGMHWVRQAPGKCLEWVSYISSGSSTIYYADTVKGRFTISRDNAKNSLYLQMNSLRAEDTAVYYCASSQSYYRGTLDYWGQGTTVTVSSGSDKTHTCPPCPAPELLGGPSVFLFPPKPKDTLMISRTPEVTCVVVDVSHEDPEVKFNWYVDGVEVHNAKTKPREEQYNSTYRVVSVLTVLHQDWLNGKEYKCKVSNKALPAPIEKTISKAKGQPREPRVYTLPPCRDELTKNQVSLTCLVKGFYPSDIAVEWESNGQPENNYKTTPPVLVSDGSFTLYSKLTVDKSRWQQGNVFSCSVMHEALHNHYTQKSLSLSPG
heavy: B3 heavy
light: B3 light
notes: F3′ format; also called AB1878-VL-VH TriNKET®; 10F10-IGHV3-21*05 BM1
B7: AB1885-TriNKET® (bispecific antibody, human IgG1, kappa)
chain: B6 chain with E132Q, V179I, S180A
heavy: B3 heavy
light: B3 light
notes: F3′ format; also called AB1885-VL-VH TriNKET®; 10F10-IGHV3-11*01 BM2
B8: AB1882-TriNKET® (bispecific antibody, human IgG1, kappa)
chain: B6 chain with K144Q
heavy: B3 heavy
light: B3 light
notes: F3′ format; also called AB1882-VL-VH TriNKET®; 10F10-IGHV3-48*01 BM1
B9: AB1884-TriNKET® (bispecific antibody, human IgG1, kappa)
chain: B6 chain with K144Q, V179I, S180A
heavy: B3 heavy
light: B3 light
notes: F3′ format; also called AB1884-VL-VH TriNKET®; 10F10-IGHV3-48*01 BM2
B10: AB1881-TriNKET® (bispecific antibody, human IgG1, kappa)
chain: B6 chain with V136L, K144Q, V179I, S180A, S209T
heavy: B3 heavy
light: B3 light
notes: F3′ format; also called AB1881-VL-VH TriNKET®; 10F10-IGHV3-23*03 BM2
B11: AB1886-TriNKET® (bispecific antibody, human IgG1, kappa)
chain: B6 chain with V168I
heavy: B3 heavy
light: B3 light
notes: F3′ format; also called AB1886-VL-VH TriNKET®; 10F10-IGHV3-11*01 BM1
B12: AB1887-TriNKET® (bispecific antibody, human IgG1, kappa)
chain: B6 chain with V179I, S180A
heavy: B3 heavy
light: B3 light
notes: F3′ format; also called AB1887-VL-VH TriNKET®; 10F10-IGHV3-21*05 BM2
B13: AB1892-TriNKET® (bispecific antibody, human IgG1, kappa)
chain: B6 chain with V136L, K144Q, A206S, S209T
heavy: B3 heavy
light: B3 light
notes: F3′ format; also called AB1892-VL-VH TriNKET®; 10F10-IGHV3-23*03 BM1
B14: AB1018 (antibody, V domains shown)
VH: EVQLVESGGGLVKPGGSLRLSCEASGFTFSDYGMHWVRQAPGKGLEWLAYISSGSSTFYYADTVKGRFTISRDNAKNSLYLQMNSLRAEDTAVYYCGSSQSYYRGTMDYWGQGTTVTVSS
VL: DIQLTQSPSSLSASVGDRVTITCRASQGVSTSTYTYLHWFQQKPGKAPKLLIKFASNLESGVPSRFSGSGSGTDFTLTISSLQPEDFATYYCQHSWEIPWTFGGGTKVEIK
notes: member of the group m33
B15: AB1019 (antibody, V domains shown)
VH: B14 VH
VL: B14 VL with L37V
notes: member of the group m33
B16: AB1017 (antibody, V domains shown)
VH: B14 VH
VL: B14 VL with L37M
notes: member of the group m33
B17: AB1011 (antibody, V domains shown)
VH: B14 VH with E23A, L48V, A49S
VL: B14 VL with L37M
notes: member of the group m33
B18: AB1013 (antibody, V domains shown)
VH: B14 VH with E23A, L48V, A49S
VL: B14 VL with L37V
notes: member of the group m33
B19: AB1012 (antibody, V domains shown)
VH: B14 VH with E23A, L48V, A49S
VL: B14 VL
notes: member of the group m33
B20: AB1014 (antibody, V domains shown)
VH: B14 VH with E23A, L48V, A49S, M107I
VL: B14 VL with L37M
notes: member of the group m33
B21: AB1015 (antibody, V domains shown)
VH: B14 VH with E23A, L48V, A49S, M107I
VL: B14 VL
notes: member of the group m33
B22: AB1016 (antibody, V domains shown)
VH: B14 VH with E23A, L48V, A49S, M107I
VL: B14 VL with L37V
notes: member of the group m33

Each binder was assayed against T1, human 5T4 on the cell surface (assay: cell-based or functional assay).

lysis of H1975 cells by KHYG-CD16V cells, EC50 | Binder
0.059 nM | B1
0.51 nM | B2

What follows are binders tested against T1, human 5T4 on the cell surface (assay: cell binding assay on 5T4-expressing tumor cells (cell line not given)).

EC50 | Max Fold Over Background (FOB) | Binder
5.62 nM | 65.9 fold over background | B3
15.9 nM | 70.8 fold over background | B4
50.5 nM | 40.1 fold over background | B5

Target: T1, human 5T4 on the cell surface
Experiment: as above
Remark: another data set of the same source

EC50 | Max Fold Over Background (FOB) | Binder
10.1 nM | 71.6 fold over background | B6
5.37 nM | 68 fold over background | B7
8.55 nM | 71.8 fold over background | B8
6.08 nM | 70.5 fold over background | B9
7.28 nM | 72.5 fold over background | B10
5.65 nM | 73.5 fold over background | B11
10.2 nM | 75 fold over background | B12
4.21 nM | 60 fold over background | B13

The binders below were run against T1, human 5T4 on the cell surface (assay: flow cytometry on H1975 cells, FOB).

binding result | Binder
binds | B14
binds | B15
binds | B16

The binders below were run against T1, human 5T4 on the cell surface (assay: flow cytometry on 5T4+ H1975 cells).

EC50 | Max (FOB) | Binder
3.4 nM | 17.9 fold over background | B1
> 12 nM |  | B2

Target: T1, human 5T4 on the cell surface
Experiment: flow cytometry on H1975 cells, FOB
Remark: another data set of the same source

binding result | Binder
binds | B17
binds | B18
binds | B19
binds | B20
binds | B21
binds | B22
